What all share (type): cell-based, human
In one test the test system is HMVE cells. In words: Annexin-V staining of serum-starved HMVE cells with podoplanin co-staining. The conditions noted are these: 72 hours serum-free medium; podoplanin positive vs negative cells, FIG. 3. Here is the method: FIG. 3. Quantitation of the Annexin-V positive cells (% of adherent cells) in the podoplanin positive and negative cell populations after 72 hours of serum starvation. Data represent mean values from five counted areas (×400) (mean±s.d.).
Analysis of endothelial cell apoptosis. For the apoptosis assay, 70,000 cells per well were seeded into 24-well plates. Treatments were done in duplicates and apoptosis was detected by measuring cytoplasmic histone-associated DNA fragments using the death detection ELISA PLUS kit (Roche, Indianapolis, Ind.). The following ranges of growth factor concentrations were tested: bFGF 10-20 ng/ml, PlGF-1 50-1000 ng/ml, VEGF 10-50 ng/ml, VEGF-C 50-1000 ng/ml, VEGF-D 50-1000 ng/ml, VEGF-C156S 50-1000 ng/ml and VEGF-E 50-1000 ng/ml. Annexin-V-FLUOS (Roche, Indianapolis, Ind.) was used to detect phosphatidylserine on the apoptotic cells by fluorescence microscopy according to the instructions of the manufacturer. The simultaneous staining with propidium iodide (1 μg/ml) was used for discriminating possible necrotic cells.
Annexin-V staining of the HMVE cells was performed after 72 hours of culture in serum-free medium alone (BSA) or with stimulation of VEGF or VEGF-C. Simultaneous staining using antibodies against podoplanin was used to distinguish lymphatic and blood vascular endothelial cells. […]

Test [1] relates to VEGFR-3 expressing lymphatic endothelial cells. Briefly: Serum starvation-induced apoptosis, cytoplasmic mono- and oligonucleosomes, isolated VEGFR-3 positive cells. The note with it: for cell survival during serum starvation: VEGFR-3 expressing cells, FIG. 2B. The source says:
FIG. 2A-FIG. 2B. VEGFR-2 and VEGFR-3, but not VEGFR-1 activating ligands inhibit apoptosis of serum-deprived HMVE cells. Measurement of the cytoplasmic histone-associated DNA fragments (mono- and oligonucleosomes) in serum-starved HMVE cells consisting of two cell populations of blood vascular and lymphatic endothelial cells (FIG. 2A) or in the isolated cell populations after magnetic cell sorting using VEGFR-3 antibodies (FIG. 2B). The enrichment factor of cytoplasmic oligonucleosomes in the apoptotic cells grown for 24 h in serum-free medium (BSA) was chosen as 100 (%). Data represent mean values from three independent experiments (mean±s.d.). […] Isolation of lymphatic and blood vascular endothelial cells. […] Analysis of endothelial cell apoptosis. For the apoptosis assay, 70,000 cells per well were seeded into 24-well plates. Treatments were done in duplicates and apoptosis was detected by measuring cytoplasmic histone-associated DNA fragments using the death detection ELISA PLUS kit (Roche, Indianapolis, Ind.). […] Annexin-V-FLUOS (Roche, Indianapolis, Ind.) was used to detect phosphatidylserine on the apoptotic cells by fluorescence microscopy according to the instructions of the manufacturer. The simultaneous staining with propidium iodide (1 μg/ml) was used for discriminating possible necrotic cells.

For another test, the system named is Akt. Briefly: Akt phosphorylation in HMVE cells, Western blot. The note with it: for Akt phosphorylation at Ser473 on growth factor stimulation: HMVE cells; for time of maximal (peak) Akt phosphorylation after exposure: HMVEC, FIG. 4. Here is the method:
(§1) Western blot analysis. Endothelial cells were cultured on 35 mm dishes to near confluence, starved for 24 h in serum free medium and stimulated as indicated. Wortmannin ([…]), LY294002 ([…]), PD98059 (10-25 μM) or GF109203X (2.5-5 μM) were added 1-3 h before stimulation, where indicated. DMSO, into which the inhibitors were dissolved, was used as a control. After the stimulation, the cells were lysed in lysis buffer (50 mM HEPES, pH 7.5, 150 mM NaCl, 10 mM EDTA, 100 mM NaF, 1% TritonX-100 supplemented with 2 mM Na3VO4, 0.5 mM PMSF, 100 U/ml approtinin and 10 μg/ml leupeptin). Clarified lysates were separated by SDS-PAGE, transferred to nitrocellulose and immunoblotted using the phosphospecific antibodies for Akt-Ser473, Akt-Thr308, p42/44 MAPK-Thr202/Tyr204 or CREB-Ser133. The bound antibodies were detected using horseradish peroxidase conjugated secondary antibodies and enhanced chemiluminescence detection system. The blots were stripped and reprobed with antibodies against Akt, MAPK or CREB for quantification by reading the optical densities of the signals with Multi-Analyst 2.0.1 program (Bio-Rad).
As discussed in the background, a major signal transduction pathway by which growth factor receptors can promote cell survival employs the PI-3-kinase and its downstream target, the serine-threonine kinase Akt. The effect of the different VEGFs on Akt was analyzed by assessing Akt phosphorylation in serine 473 and threonine 308 using phosphospecific antibodies.

The subject of another test is p42/p44 MAPK. Briefly: p42/p44 MAPK Thr202/Tyr204 phosphorylation in HMVE cells, Western blot. Here is the method:
as §1
The p42/p44 MAPK activation was detected by Western blotting using phospho-Thr202/Tyr204-MAPK specific antibodies and CREB phosphorylation using phospho-Ser133 specific antibodies. The growth factor concentrations used were: VEGF 10 ng/ml, VEGF-C 100 ng/ml and VEGF-C156S 500 ng/ml. […] Effects of inhibition of protein kinase C by GF109203X, MEK1 by PD98059 and PI-3 kinase by LY294002 on p42/p44 MAPK Thr202/Tyr204 phosphorylation, CREB Ser133 phosphorylation and Akt Ser473 phosphorylation in HMVE cells. The growth factor concentrations used were: VEGF 1 ng/ml, VEGF-C 10 ng/ml and VEGF-C156S 500 ng/ml

Where [2] appears, read: serum-deprived lymphatic endothelial cells.

Regarding VEGF, the “Annexin-V positive cells / survival” value in the test with HMVE cells is “strongly decreased the number of cells displaying Annexin-V positivity”. The “cell survival during serum starvation” value in test [1] is on record as “promoted cell survival”. Also, in the test with Akt, the “Akt phosphorylation at Ser473 on growth factor stimulation” value was “phosphorylated at Ser473” and the “time of maximal (peak) Akt phosphorylation after exposure” value lay in the range of 20 to 30 min. In the test with p42/p44 MAPK, the “duration of MAPK activation, in words” value was “more transient than that induced by VEGF-C” and the “p42/p44 MAPK activation (phosphorylation)” value is “significantly stronger”.

B1: VEGF-C156S: VEGFR-3 specific mutant form of VEGF-C, cysteine 156 changed into serine; recombinant human (Thr103 to Ile225) (protein, UniProt P49767 103-225, looked up, variant C156S)
chain: TEETIKFAAAHYNTEILKSIDNEWRKTQCMPREVCIDVGKEFGVATNTFFKPPSVSVYRCGGCCNSEGLQCMNTSTSYLSKTLFEITVPLSQGPKPVTISFANHTSCRCMSKLDVYRQVHSII
As for B1, the “Annexin-V positive cells / survival” value in the test on HMVE cells was “increased the survival of mainly the lymphatic endothelial cells”. The “cell survival during serum starvation” value in test [1] is “induced the survival of only the VEGFR-3 positive cells”. Besides, in test [1] (setting [2]), the “accumulation of oligo- and mononucleosomes” value is reported as “inhibited dose-dependently”; the “concentration at which the maximum effect was achieved (inhibition of oligo- and mononucleosome accumulation)” value is 500 ng/mL. Further, in the test on Akt, the “Akt phosphorylation at Ser473 on growth factor stimulation” value is “phosphorylated at Ser473” and the “time of maximal (peak) Akt phosphorylation after exposure” value is 30 to 40 min. In the test with p42/p44 MAPK, the “p42/p44 MAPK activation (phosphorylation)” value is on record as “MAPK activation in HMVE cells was detected”.

For the origin of these results see patent US20080317723A1, “LYMPHATIC ENDOTHELIAL CELLS MATERIALS AND METHODS” (VEGENICS LIMITED, priority 2001, published 2008).
